Experimental findings from publication PMC2077811 (The Journal of biological chemistry, 2006) are described below.

The target of the test is T1, hRad51 (human, UniProt Q06609 1-339).
T1 sequence (looked up): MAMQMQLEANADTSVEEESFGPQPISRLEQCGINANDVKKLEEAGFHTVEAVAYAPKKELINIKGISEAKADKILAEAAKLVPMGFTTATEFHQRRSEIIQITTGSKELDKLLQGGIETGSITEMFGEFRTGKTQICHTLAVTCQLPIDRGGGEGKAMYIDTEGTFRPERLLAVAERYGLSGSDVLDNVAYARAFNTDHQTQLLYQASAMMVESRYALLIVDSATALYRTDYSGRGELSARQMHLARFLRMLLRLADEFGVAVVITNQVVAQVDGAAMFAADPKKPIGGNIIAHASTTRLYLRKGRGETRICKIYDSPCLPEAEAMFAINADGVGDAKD
Kind of test: pull-down.

B1: GST-BRC3/4 (domain or fragment, human, UniProt P51587 1409-1596, looked up)
chain: LTATKTEQNIKDFETSDTFFQTASGKNISVAKESFNKIVNFFDQKPEELHNFSLNSELHSDIRKNKMDILSYEETDIVKHKILKESVPVGTGNQLVTFQGQPERDEKIKEPTLLGFHTASGKKVKIAKESLDKVKNLFDEKEQGTSEITSFSHQWAKTLKYREACKDLELACETIEITAAPKCKEMQN
For the molecule B1, the binding result was “binds”.
